One data set concerns the target c-Src SH2. Put plainly: SH2 binding enrichment of the phosphorylated peptide, bacterial display (enrichment ratio); higher = better substrate or ligand; peptides without Tyr show the background.
The target in another data set is Grb2 SH2 (UniProt P62993). The description is as above.
Another data set deals with SHP2-C SH2. The description is as above.
A further data set relates to Fer (mouse). Put plainly: phosphorylation enrichment, bacterial display (enrichment ratio); higher = better substrate or ligand; peptides without Tyr show the background.
The target in the next data set is EPHB2 (UniProt P29323). The description is as above.
Another data set concerns the target Fyn (UniProt P06241). The description is as above.
Another data set concerns the target MERTK (UniProt Q12866). The data set is described as above.
Another data set relates to c-Src. The description is as above.
Another data set relates to c-Abl (mouse). The data set is described as above.
Another data set addresses FGFR3 (UniProt P22607). The data set is described as above.
The target in another data set is Jak2 (UniProt O60674). Described as above.
Another data set has as its target Fes (UniProt P07332). The description is as above.
The target of a further data set is Hck (UniProt P08631). The data set is described as above.
For another data set, the target named is EPHB1 (UniProt P54762). The data set is described as above.
Another data set has as its system AncSZ. Described as above.
In a further data set the target is FGFR1 (UniProt P11362). Described as above.

This is an account of results in the supplement of paper PMC10065799, “High-throughput profiling of sequence recognition by tyrosine kinases and SH2 domains using bacterial peptide display” (eLife, 2023).
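Throughout, for SH2 binding enrichment of the phosphorylated peptide, bacterial display: peptide library displayed on the E. coli surface as eCPX fusions, selected cells deep-sequenced, score is each peptide's frequency after selection divided by its frequency in the input.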
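Throughout, for phosphorylation enrichment, bacterial display: 11-residue human phosphosite peptides and single-mutation variants displayed on the E. coli surface, counted by deep sequencing, each peptide's frequency after selection divided by its frequency in the unselected input library; frequency after pTyr selection over input frequency; kinase dosed for 20-30% of maximal phosphorylation in three min.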

FGFR3, sequence (P22607 whole entry, looked up): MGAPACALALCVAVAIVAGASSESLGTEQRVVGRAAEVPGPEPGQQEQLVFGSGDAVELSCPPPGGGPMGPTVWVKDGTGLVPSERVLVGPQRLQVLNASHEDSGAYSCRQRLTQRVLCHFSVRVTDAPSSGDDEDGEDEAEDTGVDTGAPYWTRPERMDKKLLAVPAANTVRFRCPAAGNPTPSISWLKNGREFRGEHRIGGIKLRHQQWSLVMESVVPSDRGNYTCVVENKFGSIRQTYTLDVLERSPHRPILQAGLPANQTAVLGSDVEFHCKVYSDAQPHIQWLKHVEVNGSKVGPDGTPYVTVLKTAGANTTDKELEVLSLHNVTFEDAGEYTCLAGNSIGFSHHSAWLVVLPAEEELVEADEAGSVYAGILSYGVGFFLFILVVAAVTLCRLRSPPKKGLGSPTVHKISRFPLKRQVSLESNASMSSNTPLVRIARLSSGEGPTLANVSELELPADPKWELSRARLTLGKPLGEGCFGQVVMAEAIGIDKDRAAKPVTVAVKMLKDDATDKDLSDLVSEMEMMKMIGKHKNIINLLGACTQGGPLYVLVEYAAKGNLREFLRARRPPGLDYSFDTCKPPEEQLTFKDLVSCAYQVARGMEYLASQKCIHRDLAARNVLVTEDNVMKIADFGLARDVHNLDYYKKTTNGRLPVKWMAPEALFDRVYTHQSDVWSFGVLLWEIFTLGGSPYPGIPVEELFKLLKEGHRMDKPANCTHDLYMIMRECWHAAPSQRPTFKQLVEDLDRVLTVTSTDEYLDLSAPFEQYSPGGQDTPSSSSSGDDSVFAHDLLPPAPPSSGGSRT
Hck, sequence (P08631 whole entry, looked up): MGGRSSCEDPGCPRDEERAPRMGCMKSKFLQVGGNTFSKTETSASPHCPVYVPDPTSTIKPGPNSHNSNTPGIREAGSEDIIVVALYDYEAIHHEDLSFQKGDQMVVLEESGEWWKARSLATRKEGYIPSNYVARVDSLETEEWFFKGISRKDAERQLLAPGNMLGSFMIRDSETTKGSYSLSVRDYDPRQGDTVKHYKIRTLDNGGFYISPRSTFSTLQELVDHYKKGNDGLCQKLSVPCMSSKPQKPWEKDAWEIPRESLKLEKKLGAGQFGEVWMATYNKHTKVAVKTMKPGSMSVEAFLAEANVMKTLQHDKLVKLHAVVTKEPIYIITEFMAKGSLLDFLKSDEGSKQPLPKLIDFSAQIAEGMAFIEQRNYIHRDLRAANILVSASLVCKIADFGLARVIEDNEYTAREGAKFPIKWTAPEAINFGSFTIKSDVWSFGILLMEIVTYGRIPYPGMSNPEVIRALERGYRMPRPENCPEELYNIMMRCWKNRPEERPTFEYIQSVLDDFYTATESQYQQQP
MERTK, sequence (Q12866 whole entry, looked up): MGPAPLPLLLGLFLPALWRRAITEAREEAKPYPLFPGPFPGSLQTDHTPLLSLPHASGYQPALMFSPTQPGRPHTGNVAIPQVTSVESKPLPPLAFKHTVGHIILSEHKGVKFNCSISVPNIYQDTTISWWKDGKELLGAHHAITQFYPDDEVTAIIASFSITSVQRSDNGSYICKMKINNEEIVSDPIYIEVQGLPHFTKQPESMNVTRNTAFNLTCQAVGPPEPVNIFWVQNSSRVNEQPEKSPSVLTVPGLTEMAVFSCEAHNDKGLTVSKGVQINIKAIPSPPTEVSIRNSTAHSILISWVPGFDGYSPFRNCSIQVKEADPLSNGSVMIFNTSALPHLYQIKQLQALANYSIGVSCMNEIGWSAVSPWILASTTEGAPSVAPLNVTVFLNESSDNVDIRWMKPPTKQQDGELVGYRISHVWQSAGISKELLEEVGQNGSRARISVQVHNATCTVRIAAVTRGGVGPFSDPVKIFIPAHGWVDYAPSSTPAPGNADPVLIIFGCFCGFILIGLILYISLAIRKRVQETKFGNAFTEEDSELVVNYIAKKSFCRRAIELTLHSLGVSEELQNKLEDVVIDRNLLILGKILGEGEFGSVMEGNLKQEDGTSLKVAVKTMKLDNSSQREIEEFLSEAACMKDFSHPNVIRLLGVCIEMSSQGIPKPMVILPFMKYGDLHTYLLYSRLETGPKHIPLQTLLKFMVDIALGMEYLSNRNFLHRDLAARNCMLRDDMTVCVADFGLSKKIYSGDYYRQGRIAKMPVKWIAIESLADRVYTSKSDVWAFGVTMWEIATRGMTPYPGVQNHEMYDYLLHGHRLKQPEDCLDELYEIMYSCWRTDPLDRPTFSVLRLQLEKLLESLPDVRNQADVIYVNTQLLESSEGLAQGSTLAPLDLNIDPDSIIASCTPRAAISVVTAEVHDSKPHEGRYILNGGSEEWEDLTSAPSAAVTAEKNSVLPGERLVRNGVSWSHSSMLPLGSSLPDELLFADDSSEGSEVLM
EPHB2, sequence (P29323 whole entry, looked up): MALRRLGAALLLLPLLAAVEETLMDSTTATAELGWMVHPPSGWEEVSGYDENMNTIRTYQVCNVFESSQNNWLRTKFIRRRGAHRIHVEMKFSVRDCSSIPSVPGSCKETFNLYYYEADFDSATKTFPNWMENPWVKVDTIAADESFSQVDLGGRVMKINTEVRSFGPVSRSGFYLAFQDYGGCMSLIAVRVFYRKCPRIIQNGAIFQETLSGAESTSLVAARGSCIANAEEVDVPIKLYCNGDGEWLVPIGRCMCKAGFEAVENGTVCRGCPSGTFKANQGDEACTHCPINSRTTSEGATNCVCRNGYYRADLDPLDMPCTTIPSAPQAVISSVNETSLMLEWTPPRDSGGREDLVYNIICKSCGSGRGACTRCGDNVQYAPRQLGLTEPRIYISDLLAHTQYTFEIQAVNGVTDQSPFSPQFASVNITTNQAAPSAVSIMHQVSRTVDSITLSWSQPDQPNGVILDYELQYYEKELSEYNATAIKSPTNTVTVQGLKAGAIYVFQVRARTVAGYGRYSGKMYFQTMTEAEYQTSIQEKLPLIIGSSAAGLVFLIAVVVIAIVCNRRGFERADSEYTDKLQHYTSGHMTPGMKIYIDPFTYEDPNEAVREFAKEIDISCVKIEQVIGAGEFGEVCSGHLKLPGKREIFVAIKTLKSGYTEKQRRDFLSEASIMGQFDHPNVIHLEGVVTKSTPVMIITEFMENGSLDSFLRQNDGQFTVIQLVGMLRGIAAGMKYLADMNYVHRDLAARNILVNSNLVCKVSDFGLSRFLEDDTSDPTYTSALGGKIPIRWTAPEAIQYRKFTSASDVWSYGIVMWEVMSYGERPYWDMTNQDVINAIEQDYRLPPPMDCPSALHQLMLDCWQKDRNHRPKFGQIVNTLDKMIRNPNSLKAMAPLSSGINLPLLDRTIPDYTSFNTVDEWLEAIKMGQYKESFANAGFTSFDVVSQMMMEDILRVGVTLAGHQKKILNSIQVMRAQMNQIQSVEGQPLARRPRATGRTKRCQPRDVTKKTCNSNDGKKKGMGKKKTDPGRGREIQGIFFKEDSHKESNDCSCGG
EPHB1, sequence (P54762 whole entry, looked up): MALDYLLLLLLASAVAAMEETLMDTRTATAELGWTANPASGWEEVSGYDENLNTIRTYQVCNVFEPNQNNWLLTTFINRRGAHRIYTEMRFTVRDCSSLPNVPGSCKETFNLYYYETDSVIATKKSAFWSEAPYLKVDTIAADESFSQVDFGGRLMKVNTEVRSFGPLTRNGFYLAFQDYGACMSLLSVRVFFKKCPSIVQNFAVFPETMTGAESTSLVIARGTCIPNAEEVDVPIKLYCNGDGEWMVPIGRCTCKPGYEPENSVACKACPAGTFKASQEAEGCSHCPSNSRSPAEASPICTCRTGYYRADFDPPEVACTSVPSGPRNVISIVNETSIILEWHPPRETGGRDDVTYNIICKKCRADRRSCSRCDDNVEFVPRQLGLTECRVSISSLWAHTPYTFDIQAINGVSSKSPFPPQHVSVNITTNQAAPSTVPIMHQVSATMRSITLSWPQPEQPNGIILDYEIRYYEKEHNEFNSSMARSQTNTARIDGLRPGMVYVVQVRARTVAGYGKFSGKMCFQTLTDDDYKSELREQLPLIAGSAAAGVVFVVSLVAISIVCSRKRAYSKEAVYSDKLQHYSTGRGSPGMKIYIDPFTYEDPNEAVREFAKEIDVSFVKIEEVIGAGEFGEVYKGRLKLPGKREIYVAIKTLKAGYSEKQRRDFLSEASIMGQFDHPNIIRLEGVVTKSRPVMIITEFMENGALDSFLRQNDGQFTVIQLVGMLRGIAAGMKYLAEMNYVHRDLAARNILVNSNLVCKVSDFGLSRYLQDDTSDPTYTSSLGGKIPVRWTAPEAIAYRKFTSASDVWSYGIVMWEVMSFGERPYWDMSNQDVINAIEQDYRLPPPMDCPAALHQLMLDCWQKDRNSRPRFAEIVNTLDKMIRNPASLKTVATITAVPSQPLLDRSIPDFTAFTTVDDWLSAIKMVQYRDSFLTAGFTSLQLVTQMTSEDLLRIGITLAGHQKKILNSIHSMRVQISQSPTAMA
Grb2 SH2, sequence (P62993 whole entry, looked up): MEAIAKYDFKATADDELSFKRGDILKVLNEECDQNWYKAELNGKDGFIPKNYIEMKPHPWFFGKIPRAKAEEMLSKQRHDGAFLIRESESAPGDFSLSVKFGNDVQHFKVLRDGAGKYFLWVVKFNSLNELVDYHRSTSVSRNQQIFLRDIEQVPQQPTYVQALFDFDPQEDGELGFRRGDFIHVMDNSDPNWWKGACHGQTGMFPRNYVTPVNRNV

As for EQKKYYNAMKK [SCN5A_Y1495], the results for the SH2 binding enrichment with c-Src SH2, with Grb2 SH2 and with SHP2-C SH2 were 0.85, 0.818 and 1.07, respectively. The phosphorylation enrichment in the data set on Fer (mouse) was found to be 0.353; with EPHB2, 0.332; with Fyn, 0.3; with MERTK, 0.305; in the data set with c-Src it was 0.34; in the data set on c-Abl (mouse), 0.519. In addition, the phosphorylation enrichment is 0.4 with FGFR3; 0.613 in the data set with Jak2; 0.649 in the data set with Fes; 0.34 with Hck; 0.368 with EPHB1; 0.551 in the data set with AncSZ. Besides, the phosphorylation enrichment with FGFR1 is 0.342.

In the case of EQLLDYTRTVQ [INPP5E_Y439_R435Q], the SH2 binding enrichment with c-Src SH2 is 0.438; with Grb2 SH2 it was 0.904; with SHP2-C SH2 it was 0.732. Also, the phosphorylation enrichment worked out at 0.494 with Fer (mouse); 0.569 with EPHB2; 0.469 with Fyn; 0.475 with MERTK; 0.438 with c-Src; 0.614 in the data set on c-Abl (mouse). Also, the phosphorylation enrichment was found to be 0.709 with FGFR3; 0.976 in the data set with Jak2; 0.815 with Fes; 0.542 in the data set with Hck; 0.557 with EPHB1; 0.969 in the data set with AncSZ. Also, in the data set with FGFR1, the phosphorylation enrichment is 0.515.

Regarding EREFKYDAHNF [OAT_Y50_G51D_YF], the SH2 binding enrichment with c-Src SH2 worked out at 0.543; in the data set with Grb2 SH2, 0.803; with SHP2-C SH2, 0.629. For the same sequence, the phosphorylation enrichment in the data set on Fer (mouse) came to 0.832; with EPHB2, 0.445; with Fyn it was 0.361; in the data set with MERTK, 0.512; with c-Src, 0.477; in the data set with c-Abl (mouse) it was 0.645. Besides, the phosphorylation enrichment in the data set with FGFR3 was found to be 0.693; with Jak2, 0.914; with Fes, 1.02; in the data set with Hck, 0.558; with EPHB1 it was 0.624; in the data set on AncSZ it was 0.915. Moreover, in the data set with FGFR1, the phosphorylation enrichment amounted to 0.643.

As for ERPGVHTNVVE [F11_Y608_Y608H], the SH2 binding enrichment with c-Src SH2 turned out to be 0.491; in the data set with Grb2 SH2 it was 0.849; in the data set with SHP2-C SH2, 0.605. Moreover, the phosphorylation enrichment was 0.474 in the data set on Fer (mouse); 0.769 with EPHB2; 0.517 in the data set with Fyn; 0.483 with MERTK; 0.388 in the data set on c-Src; 0.717 in the data set with c-Abl (mouse). In addition, the phosphorylation enrichment with FGFR3 came to 0.754; in the data set with Jak2, 0.777; with Fes, 0.964; with Hck it was 0.394; with EPHB1, 0.598; in the data set with AncSZ it was 0.794. In addition, the phosphorylation enrichment in the data set with FGFR1 turned out to be 0.46.

On to ERRLIYTSDPK [VPS13D_Y864], for which the SH2 binding enrichment in the data set with c-Src SH2 came out at 0.507; in the data set with Grb2 SH2, 0.872; in the data set with SHP2-C SH2, 0.663. For the same sequence, the phosphorylation enrichment turned out to be 0.43 in the data set with Fer (mouse); 0.431 in the data set with EPHB2; 0.444 in the data set with Fyn; 0.444 with MERTK; 0.437 with c-Src; 0.472 with c-Abl (mouse). Also, the phosphorylation enrichment with FGFR3 amounted to 0.372; with Jak2, 0.586; in the data set with Fes it was 0.64; with Hck, 0.39; in the data set with EPHB1, 0.307; in the data set with AncSZ, 0.563. Besides, the phosphorylation enrichment with FGFR1 turned out to be 0.486.

Take ESAAIYNPVIY [RHO_Y301_K296E]: the SH2 binding enrichment with c-Src SH2 came to 0.464; with Grb2 SH2 it was 0.758; with SHP2-C SH2, 0.553. Also, the phosphorylation enrichment came to 17.5 in the data set on Fer (mouse); 0.944 with EPHB2; 8.88 in the data set with Fyn; 3.45 with MERTK; 7.21 in the data set with c-Src; 1.15 with c-Abl (mouse). Further, the phosphorylation enrichment in the data set with FGFR3 is 1.88; with Jak2 it was 0.793; in the data set with Fes it was 1.26; in the data set with Hck it was 9.21; with EPHB1, 0.995; in the data set on AncSZ, 1.01. Further, in the data set with FGFR1, the phosphorylation enrichment was 1.99.

For the sequence ETAENYLGYTA [HSPA9_Y181_H184Y], the SH2 binding enrichment with c-Src SH2 was 0.557; with Grb2 SH2, 0.882; with SHP2-C SH2, 0.7. In addition, the phosphorylation enrichment with Fer (mouse) was determined as 0.498; in the data set with EPHB2, 0.684; in the data set with Fyn it was 0.563; in the data set with MERTK, 0.516; with c-Src it was 0.678; with c-Abl (mouse) it was 0.691. Further, the phosphorylation enrichment came to 0.784 in the data set with FGFR3; 0.839 with Jak2; 1.23 with Fes; 0.751 with Hck; 0.674 with EPHB1; 1.17 in the data set on AncSZ. Moreover, the phosphorylation enrichment with FGFR1 stood at 0.748.

With ETEMLYGSARR [PRC1_Y464_P468R], the SH2 binding enrichment with c-Src SH2 stood at 0.495; with Grb2 SH2, 0.853; with SHP2-C SH2 it was 0.871. The phosphorylation enrichment stood at 1.27 in the data set with Fer (mouse); 0.451 in the data set with EPHB2; 2.66 in the data set with Fyn; 0.38 in the data set with MERTK; 2.81 with c-Src; 0.638 in the data set with c-Abl (mouse). In addition, the phosphorylation enrichment amounted to 0.601 with FGFR3; 0.521 in the data set with Jak2; 0.78 with Fes; 4.55 in the data set with Hck; 0.416 with EPHB1; 0.886 in the data set with AncSZ. In the data set with FGFR1, the phosphorylation enrichment turned out to be 0.429.
